In US20140017235A1:

Target: human NGF (human), P01138
Assay: cell-based or functional assay

Chain of human NGF (human), P01138 (P01138 122-241 limits assumed): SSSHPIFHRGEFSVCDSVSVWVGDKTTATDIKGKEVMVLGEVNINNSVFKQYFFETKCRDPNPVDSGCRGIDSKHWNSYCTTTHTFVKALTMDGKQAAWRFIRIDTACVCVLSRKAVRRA

B1: antibody E3 (full antibody) (antibody, human IgG2, kappa)
heavy: QVQLQESGPGLVKPSETLSLTCTVSGFSLIGYDLNWIRQPPGKGLEWIGIIWGDGTTDYNSAVKSRVTISKDTSKNQFSLKLSSVTAADTAVYYCARGGYWYATSYYFDYWGQGTLVTVSSASTKGPSVFPLAPCSRSTSESTAALGCLVKDYFPEPVTVSWNSGALTSGVHTFPAVLQSSGLYSLSSVVTVPSSNFGTQTYTCNVDHKPSNTKVDKTVERKCCVECPPCPAPPVAGPSVFLFPPKPKDTLMISRTPEVTCVVVDVSHEDPEVQFNWYVDGVEVHNAKTKPREEQFNSTFRVVSVLTVVHQDWLNGKEYKCKVSNKGLPSSIEKTISKTKGQPREPQVYTLPPSREEMTKNQVSLTCLVKGFYPSDIAVEWESNGQPENNYKTTPPMLDSDGSFFLYSKLTVDKSRWQQGNVFSCSVMHEALHNHYTQKSLSLSPGK
light: not shown
modifications: not checked
  antibody concentration that totally blocked NGF-elicited survival of trigeminal neurons: 20 nM
